These results are taken from patent US20220372120A1 (GEMINI THERAPEUTICS SUB, published 2022).

Positions count from the first letter of the chain named. Several values for one entry are separate records, joined by “and”; a condition that tells them apart may be missing. Identical values can stand only once.

B1: FHR-1.3B4 (antibody, V domains shown)
VH: QVQLRQSGPGLVQPSQSLSITCTVSGFSLTNYGVYWVRQSPGKGLEWLGVIWSGGTTDYSAAFISRLSISKDNSKSQVFFKMNSLQADDTAIYYCARNFGNYAMDYWGQGTSVTVSS
VL: QIVLSQSPTILSASPGEKVTMTCRASSSVTYMHWYQQKPGSSPKPWIYATSNLASGVPARFSGSGSGTSYSLTISRVEAEDAATYYCQQRSSSNPLTFGAGTKLELK
notes: Mouse monoclonal antibody raised in BALB/c mice against recombinant human FHR-1 (hybridoma); kappa light chain implied by capture on rat anti-mouse kappa RM19; also called anti-FHR-1.3B4; anti-FHR-1 3B4
B2: Antibody 1 (antibody, V domains shown)
VH: QVQLQESGPGLVKPSQTLSLTCTVSGFSLTNYGVYWIRQHPGKGLEWIGVVWSGGTTEFNPSLKSRVTISKDTSKNQVSLKLSSVTAADTAVYYCARNFGNYAMDYWGQGTSVTVSS
VL: DIQLTQSPSSLSASVGDRVTITCKASSSVTYLHWYQQKPGKAPKPLIYATSNLASGVPSRFSGSGSGTDFTLTISSLQPEDFATYYCQHRSSSNPLTFGAGTKLELK
B3: Antibody 3 (antibody, V domains shown)
VH: B2 VH
VL: B2 VL with K24R, S27T, L32M, T50S
B4: Antibody 4 (antibody, V domains shown)
VH: B2 VH with V51I, F59Y, L63M, Y106F
VL: B2 VL with K24R, S27T, L32M, T50S
B5: Antibody 2 (antibody, V domains shown)
VH: B2 VH with V51I, F59Y, L63M, Y106F
VL: B2 VL

T1 sequence (P08603 19-1231): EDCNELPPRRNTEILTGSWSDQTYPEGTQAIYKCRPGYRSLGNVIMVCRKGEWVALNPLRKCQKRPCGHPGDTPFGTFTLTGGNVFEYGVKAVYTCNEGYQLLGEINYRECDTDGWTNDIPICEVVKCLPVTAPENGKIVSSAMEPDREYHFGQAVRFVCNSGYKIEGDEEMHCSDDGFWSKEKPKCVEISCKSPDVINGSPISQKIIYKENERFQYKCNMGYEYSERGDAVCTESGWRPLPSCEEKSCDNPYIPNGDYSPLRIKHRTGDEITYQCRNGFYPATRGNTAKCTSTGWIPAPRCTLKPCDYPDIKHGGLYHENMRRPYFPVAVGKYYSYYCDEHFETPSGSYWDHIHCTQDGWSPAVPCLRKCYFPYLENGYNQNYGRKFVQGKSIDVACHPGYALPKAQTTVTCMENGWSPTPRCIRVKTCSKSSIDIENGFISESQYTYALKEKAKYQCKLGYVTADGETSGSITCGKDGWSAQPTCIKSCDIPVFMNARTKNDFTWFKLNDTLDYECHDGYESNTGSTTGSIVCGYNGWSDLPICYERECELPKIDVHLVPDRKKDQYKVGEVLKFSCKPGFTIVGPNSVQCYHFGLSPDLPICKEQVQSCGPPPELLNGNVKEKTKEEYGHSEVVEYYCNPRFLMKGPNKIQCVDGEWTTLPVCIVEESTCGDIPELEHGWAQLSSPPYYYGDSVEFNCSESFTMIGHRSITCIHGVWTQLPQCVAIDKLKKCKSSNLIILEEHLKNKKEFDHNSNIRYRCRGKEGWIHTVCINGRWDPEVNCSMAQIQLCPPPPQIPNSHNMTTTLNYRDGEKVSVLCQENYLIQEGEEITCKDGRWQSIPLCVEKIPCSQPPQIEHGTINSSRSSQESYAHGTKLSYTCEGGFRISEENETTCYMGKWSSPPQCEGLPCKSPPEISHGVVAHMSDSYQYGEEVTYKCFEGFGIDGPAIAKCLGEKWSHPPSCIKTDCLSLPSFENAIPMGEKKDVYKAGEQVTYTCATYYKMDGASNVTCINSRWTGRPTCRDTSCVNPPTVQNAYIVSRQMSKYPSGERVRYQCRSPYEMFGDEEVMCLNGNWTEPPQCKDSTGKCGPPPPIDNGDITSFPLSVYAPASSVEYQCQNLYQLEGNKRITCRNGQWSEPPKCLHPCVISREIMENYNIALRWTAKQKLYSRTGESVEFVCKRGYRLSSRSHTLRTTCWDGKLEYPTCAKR

One experiment concerns the target T1, Human purified factor H (human, UniProt P08603 19-1231). Nature of the experiment: cell-based or functional assay.
As for B1, the “IC50 of inhibition of SRBC hemolysis, 10% human serum with anti-FH.09” value is 11.4 ug/ml and 76 nM.

Take B2: the “IC50 of inhibition of SRBC hemolysis, 10% human serum with anti-FH.09” value was 10.6 ug/ml and 70.7 nM.

B3: the “IC50 of inhibition of SRBC hemolysis, 10% human serum with anti-FH.09” value was 9.4 ug/ml and 62.7 nM.

On to B4, for which the “IC50 of inhibition of SRBC hemolysis, 10% human serum with anti-FH.09” value was 11.5 ug/ml and 76.7 nM.

On to B5, for which the “IC50 of inhibition of SRBC hemolysis, 10% human serum with anti-FH.09” value was 10.1 ug/ml and 67.3 nM.

The next experiment concerns the target T1, Human purified factor H. The experiment is described as follows: cell-based or functional assay. This is another data set of the same source.
As for B2, the “IC50 of inhibition of SRBC hemolysis, first replicate” value (“IC50 of inhibition … first replicate” below) is 10.7 µg/ml and 71.3 nM; the “IC50 of inhibition of SRBC hemolysis, second replicate” value (“IC50 of inhibition … second replicate” below) was 10.9 µg/ml and 72.7 nM.

For B3, the “IC50 of inhibition … first replicate” value is 11.1 µg/ml and 74 nM; the “IC50 of inhibition … second replicate” value is 9.1 µg/ml and 60.7 nM.

For B4, the “IC50 of inhibition … first replicate” value is 11.5 µg/ml and 76.5 nM; the “IC50 of inhibition … second replicate” value is 11.8 µg/ml and 78.5 nM.

For B5, the “IC50 of inhibition … first replicate” value was 11.4 µg/ml and 76.3 nM; the “IC50 of inhibition … second replicate” value is 10.4 µg/ml and 69.3 nM.

For the next experiment, the target named is T1, Human purified factor H. The experiment is described as follows: cell-based or functional assay. This is another data set of the same source.
As for B1, the “IC50 of inhibition of C3b deposition on LPS, 10% normal human serum” value (“IC50 of inhibition … 10% normal human serum” for short) was 38 nM and 5.7 µg/ml.

B2: the “IC50 of inhibition … 10% normal human serum” value was 2.26 µg/ml and 15.1 nM.

Consider B3, for which the “IC50 of inhibition … 10% normal human serum” value is 3.47 µg/ml and 23.1 nM.

For B4, the “IC50 of inhibition … 10% normal human serum” value was 3.51 µg/ml and 23.4 nM.

Regarding B5, the “IC50 of inhibition … 10% normal human serum” value was 2.82 µg/ml and 18.8 nM.

In the next experiment the target is T1, Human purified factor H. Nature of the experiment: SPR (BiaCore T200), antibody captured on Protein A or Protein G chip, full length FH flowed over. How it is done:
To determine binding affinity of Antibodies 1-4, surface plasmon resonance (SPR) experiments were performed using a BiaCore T200 (GE Healthcare) and CMS sensor chips (GE Healthcare) in accordance with the manufacturer's instructions. Briefly, Antibodies […] or anti-FHR-1.3B4 were captured onto a Protein A or Protein G coupled chip and full length FH was flown over the captured moAB at decreasing concentrations.
(In general: In SPR one partner is held on a chip, and binding of the other changes the refractive index at the surface.)
Take B1: the Kd turned out to be 0.91 nM, the koff was determined as 5.32e-05 s⁻¹ and the kon was 59500 M⁻¹ s⁻¹.

With B2, the Kd came out at 0.5 nM, the koff was 2.67e-05 s⁻¹ and the kon came to 53800 M⁻¹ s⁻¹.

Take B3: binding was put at a Kd of 0.85 nM, the koff stood at 4.07e-05 s⁻¹ and the kon was 48500 M⁻¹ s⁻¹.

Molecule B4 showed a Kd of 0.58 nM, a koff of 3.14e-05 s⁻¹ and a kon of 55300 M⁻¹ s⁻¹.

With B5, the affinity, expressed as Kd, was 0.52 nM; the off-rate (koff) came to 3.06e-05 s⁻¹; the kon is 58500 M⁻¹ s⁻¹.

In the next experiment the target is T1, Human purified factor H. Nature of the experiment: cell-based or functional assay. The source holds these as a separate data set.
For B2, the “IC50 of inhibition of C3b deposition on LPS, Replicate 1” value (from here on “IC50 of inhibition … Replicate 1”) was 3.5 µg/ml and 23.4 nM; the “IC50 of inhibition of C3b deposition on LPS, Replicate 2” value (“IC50 of inhibition … Replicate 2” below) is 2.26 µg/ml and 15.1 nM.

In the case of B3, the “IC50 of inhibition … Replicate 1” value was 4.14 µg/ml and 27.6 nM; the “IC50 of inhibition … Replicate 2” value is 3.47 µg/ml and 23.1 nM.

Take B4: the “IC50 of inhibition … Replicate 1” value is 4.34 µg/ml and 28.9 nM; the “IC50 of inhibition … Replicate 2” value is 3.51 µg/ml and 23.4 nM.

For the molecule B5, the “IC50 of inhibition … Replicate 1” value is 3.68 µg/ml and 24.5 nM; the “IC50 of inhibition … Replicate 2” value was 2.82 µg/ml and 18.8 nM.

Another experiment concerns the target purified C3b (Complement Technologies) (UniProt P01024). The experiment is described as follows: SPR (Biacore T200, 37 C), C3b amine-coupled to chip, pdFH injected alone, equilibrium analysis.
“Human purified factor H (from UniProt P08603 19-1231)” registered a Kd of 1300 nM.

As usually defined, the Kd is a measure of binding affinity in units of concentration. A lower Kd goes with a tighter complex. As usually defined, the koff is the first-order rate constant of dissociation. High values mean a short-lived complex, low ones a long-lived complex. For orientation: kon means a measure of how fast the partners come together.
